In the test the target is T1, complex I subunit ND1 (Yarrowia lipolytica) (Yarrowia lipolytica, UniProt Q9B6E8 1-341).
T1 sequence (looked up): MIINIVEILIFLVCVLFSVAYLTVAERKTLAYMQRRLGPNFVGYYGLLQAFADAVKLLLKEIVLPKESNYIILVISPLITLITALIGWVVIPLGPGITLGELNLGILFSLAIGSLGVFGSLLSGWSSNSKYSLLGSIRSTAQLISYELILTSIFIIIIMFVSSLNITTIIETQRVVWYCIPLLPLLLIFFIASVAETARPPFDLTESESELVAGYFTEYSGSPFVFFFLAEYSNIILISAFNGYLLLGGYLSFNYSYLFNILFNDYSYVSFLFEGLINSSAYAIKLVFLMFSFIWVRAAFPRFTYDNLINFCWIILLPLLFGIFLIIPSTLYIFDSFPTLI
Briefly: cryo-EM structure.

B1: complex I subunit ND6 (Yarrowia lipolytica) (natural protein, UniProt Q9B6E9 1-185, looked up)
chain: MMYLTYYFIEITIFLAILCTIFIISAKNPMVSILYMIALFVIAAMYLYLIGLGIFSLLYIMIYIGAIAVLFLFIITLLDINSTELSVKSNIRDLPLVLISLIVLTISGLMIYSNDSILINKLLEAFGNDYNTIITQDWFNIENTTLLTTIGNVLLTNNAFILLVLAIVLLLGIIGPISITMKHKE
As to B1, the binding result was “binds”.

These data come from article PMC8589321 (Science Advances, 2021).
